Measurements as given in article PMC7105229.
Like-named read-outs stand apart in the source and are kept apart here.

Experiments:
[1] = target: Vibrio vulnificus FAN1 (Vibrio vulnificus); test: SEC
[2] = target: Vibrio vulnificus FAN1 (Vibrio vulnificus); test: SEC; remark: listed apart in the source

**Q.** Vibrio vulnificus FAN1 (enzyme) was tested. Which stoichiometry N [1] did it give?
**A.** 2

**Q.** What about the stoichiometry N [2] of the same substance?
**A.** 2
